We go through 2 substances from publication PMC7763939.

Assay [1] has as its target PKSIII Mo29 Red (truncated/reduced type III polyketide synthase of Naganishia uzbekistanensis strain Mo29, without the 74 aa C-terminus extension) (Naganishia uzbekistanensis strain Mo29 (UBOCC-A-208024)). The assay can be described thus: SEC + other: dynamic light scattering; Sephacryl-200 gel filtration column, 50 mM Tris-HCl pH 7.5, 200 mM NaCl, size calculated with marker; DLS on a DynaPro-801; monomer to dimer.

Assay [2] deals with PKSIII Mo29 Std (type III polyketide synthase of Naganishia uzbekistanensis strain Mo29, whole protein with the C-terminus extension) (Naganishia uzbekistanensis strain Mo29 (UBOCC-A-208024)). The assay is described as above.

As usually defined, the stoichiometry N is the number of molecules, sites or subunits per partner or assembly. With “PKSIII Mo29 Red (truncated/reduced type III polyketide synthase of Naganishia uzbekistanensis strain Mo29, without the 74 aa C-terminus extension) (domain or fragment)”, the stoichiometry N in assay [1] was 2.

On to “PKSIII Mo29 Std (type III polyketide synthase of Naganishia uzbekistanensis strain Mo29, whole protein with the C-terminus extension) (enzyme)”, for which the stoichiometry N in assay [2] was 2.
